Target: HA76Cda1 (Cda1 with the HA epitope inserted at position 76) (Ustilago maydis)
Assay: FRET or BRET

Substance: DyLight 550-labeled AFP1-His (AFP1^550) (natural protein)
- FRET efficiency: 23%

Source: publication PMC10128019
